Biological target: Glucagon-like peptide-1 receptor (GLP1R)
Assay: cell-based or functional assay

Chain of Liraglutide (peptide) (peptide): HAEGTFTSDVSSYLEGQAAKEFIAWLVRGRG

Maximum reaction rate (%): 96.8%
Substance: Liraglutide (peptide)
